In article PMC7367873, “Dissecting the sequence determinants for dephosphorylation by the catalytic subunits of phosphatases PP1 and PP2A” (Nature Communications, 2020):
Each block holds one molecule with its values, some of them ahead of it.

Legend:
[1] = test system: GFP-14-3-3β and its binding proteins; experiment: GFP-14-3-3β co-IP with LC-MS/MS label-free quantification, untreated versus PP1c-treated; parameters: species or system human; conditions: for Difference (log2), PP1 vs untreated: LFQ intensities, 3 replicates each
GFP-14-3-3β = GFP-14-3-3β co-IP with LC-MS/MS, untreated GFP-14-3-3β versus GFP control (14-3-3 interactome); type: binding, human; conditions: for Difference (log2), untreated vs GFP: LFQ intensities, 3 replicates each

- Difference ([1]; GFP-14-3-3β co-IP, PP1vsUntrted, Perseus raw output, LFQ intensity difference): 0.4615
- Difference (log2), PP1 vs untreated [1]: 0.4615 log2
B1: MYO1C (protein, UniProt O00159 1-1063, looked up)
Unconventional myosin-Ic: MALQVELVPTGEIIRVVHPHRPCKLALGSDGVRVTMESALTARDRVGVQDFVLLENFTSEAAFIENLRRRFRENLIYTYIGPVLVSVNPYRDLQIYSRQHMERYRGVSFYEVPPHLFAVADTVYRALRTERRDQAVMISGESGAGKTEATKRLLQFYAETCPAPERGGAVRDRLLQSNPVLEAFGNAKTLRNDNSSRFGKYMDVQFDFKGAPVGGHILSYLLEKSRVVHQNHGERNFHIFYQLLEGGEEETLRRLGLERNPQSYLYLVKGQCAKVSSINDKSDWKVVRKALTVIDFTEDEVEDLLSIVASVLHLGNIHFAANEESNAQVTTENQLKYLTRLLSVEGSTLREALTHRKIIAKGEELLSPLNLEQAAYARDALAKAVYSRTFTWLVGKINRSLASKDVESPSWRSTTVLGLLDIYGFEVFQHNSFEQFCINYCNEKLQQLFIELTLKSEQEEYEAEGIAWEPVQYFNNKIICDLVEEKFKGIISILDEECLRPGEATDLTFLEKLEDTVKHHPHFLTHKLADQRTRKSLGRGEFRLLHYAGEVTYSVTGFLDKNNDLLFRNLKETMCSSKNPIMSQCFDRSELSDKKRPETVATQFKMSLLQLVEILQSKEPAYVRCIKPNDAKQPGRFDEVLIRHQVKYLGLLENLRVRRAGFAYRRKYEAFLQRYKSLCPETWPTWAGRPQDGVAVLVRHLGYKPEEYKMGRTKIFIRFPKTLFATEDALEVRRQSLATKIQAAWRGFHWRQKFLRVKRSAICIQSWWRGTLGRRKAAKRKWAAQTIRRLIRGFVLRHAPRCPENAFFLDHVRTSFLLNLRRQLPQNVLDTSWPTPPPALREASELLRELCIKNMVWKYCRSISPEWKQQLQQKAVASEIFKGKKDNYPQSVPRLFISTRLGTDEISPRVLQALGSEPIQYAVPVVKYDRKGYKPRSRQLLLTPNAVVIVEDAKVKQRIDYANLTGISVSSLSDSLFVLHVQRADNKQKGDVVLQSDHVIETLTKTALSANRVNSININQGSITFAGGPGRDGTIDFTPGSELLITKAKNGHLAVVAPRLNSR
- Difference (GFP-14-3-3β; UntrtedvsGFP, Perseus raw output, LFQ intensity difference): -0.5566
- Difference (log2), untreated vs GFP (GFP-14-3-3β): -0.5566 log2

- Difference (log2), PP1 vs untreated [1]: 0.444 log2
B2: TUBA1C (protein, UniProt Q9BQE3 1-449, looked up)
Tubulin alpha-1C chain: MRECISIHVGQAGVQIGNACWELYCLEHGIQPDGQMPSDKTIGGGDDSFNTFFSETGAGKHVPRAVFVDLEPTVIDEVRTGTYRQLFHPEQLITGKEDAANNYARGHYTIGKEIIDLVLDRIRKLADQCTGLQGFLVFHSFGGGTGSGFTSLLMERLSVDYGKKSKLEFSIYPAPQVSTAVVEPYNSILTTHTTLEHSDCAFMVDNEAIYDICRRNLDIERPTYTNLNRLISQIVSSITASLRFDGALNVDLTEFQTNLVPYPRIHFPLATYAPVISAEKAYHEQLTVAEITNACFEPANQMVKCDPRHGKYMACCLLYRGDVVPKDVNAAIATIKTKRTIQFVDWCPTGFKVGINYQPPTVVPGGDLAKVQRAVCMLSNTTAVAEAWARLDHKFDLMYAKRAFVHWYVGEGMEEGEFSEAREDMAALEKDYEEVGADSADGEDEGEEY
- Difference (log2), untreated vs GFP (GFP-14-3-3β): 0.0777 log2

- Difference (log2), PP1 vs untreated [1]: 0.4434 log2
B3: IMMT (protein, UniProt Q16891 34-758, looked up)
MICOS complex subunit MIC60: STSGSSGLTTGKIAGAGLLFVGGGIGGTILYAKWDSHFRESVEKTIPYSDKLFEMVLGPAAYNVPLPKKSIQSGPLKISSVSEVMKESKQPASQLQKQKGDTPASATAPTEAAQIISAAGDTLSVPAPAVQPEESLKTDHPEIGEGKPTPALSEEASSSSIRERPPEEVAARLAQQEKQEQVKIESLAKSLEDALRQTASVTLQAIAAQNAAVQAVNAHSNILKAAMDNSEIAGEKKSAQWRTVEGALKERRKAVDEAADALLKAKEELEKMKSVIENAKKKEVAGAKPHITAAEGKLHNMIVDLDNVVKKVQAAQSEAKVVSQYHELVVQARDDFKRELDSITPEVLPGWKGMSVSDLADKLSTDDLNSLIAHAHRRIDQLNRELAEQKATEKQHITLALEKQKLEEKRAFDSAVAKALEHHRSEIQAEQDRKIEEVRDAMENEMRTQLRRQAAAHTDHLRDVLRVQEQELKSEFEQNLSEKLSEQELQFRRLSQEQVDNFTLDINTAYARLRGIEQAVQSHAVAEEEARKAHQLWLSVEALKYSMKTSSAETPTIPLGSAVEAIKANCSDNEFTQALTAAIPPESLTRGVYSEETLRARFYAVQKLARRVAMIDETRNSLYQYFLSYLQSLLLFPPQQLKPPPELCPEDINTFKLLSYASYCIEHGDLELAAKFVNQLKGESRRVAQDWLKEARMTLETKQIVEILTAYASAVGIGTTQVQPE
- Difference (log2), untreated vs GFP (GFP-14-3-3β): 0.387 log2

- Difference (log2), PP1 vs untreated [1]: 0.4439 log2
B4: MAP4K4 (protein, UniProt O95819 2-1239, looked up)
Mitogen-activated protein …: ANDSPAKSLVDIDLSSLRDPAGIFELVEVVGNGTYGQVYKGRHVKTGQLAAIKVMDVTEDEEEEIKLEINMLKKYSHHRNIATYYGAFIKKSPPGHDDQLWLVMEFCGAGSITDLVKNTKGNTLKEDWIAYISREILRGLAHLHIHHVIHRDIKGQNVLLTENAEVKLVDFGVSAQLDRTVGRRNTFIGTPYWMAPEVIACDENPDATYDYRSDLWSCGITAIEMAEGAPPLCDMHPMRALFLIPRNPPPRLKSKKWSKKFFSFIEGCLVKNYMQRPSTEQLLKHPFIRDQPNERQVRIQLKDHIDRTRKKRGEKDETEYEYSGSEEEEEEVPEQEGEPSSIVNVPGESTLRRDFLRLQQENKERSEALRRQQLLQEQQLREQEEYKRQLLAERQKRIEQQKEQRRRLEEQQRREREARRQQEREQRRREQEEKRRLEELERRRKEEEERRRAEEEKRRVEREQEYIRRQLEEEQRHLEVLQQQLLQEQAMLLECRWREMEEHRQAERLQRQLQQEQAYLLSLQHDHRRPHPQHSQQPPPPQQERSKPSFHAPEPKAHYEPADRAREVEDRFRKTNHSSPEAQSKQTGRVLEPPVPSRSESFSNGNSESVHPALQRPAEPQVPVRTTSRSPVLSRRDSPLQGSGQQNSQAGQRNSTSIEPRLLWERVEKLVPRPGSGSSSGSSNSGSQPGSHPGSQSGSGERFRVRSSSKSEGSPSQRLENAVKKPEDKKEVFRPLKPADLTALAKELRAVEDVRPPHKVTDYSSSSEESGTTDEEDDDVEQEGADESTSGPEDTRAASSLNLSNGETESVKTMIVHDDVESEPAMTPSKEGTLIVRQTQSASSTLQKHKSSSSFTPFIDPRLLQISPSSGTTVTSVVGFSCDGMRPEAIRQDPTRKGSVVNVNPTNTRPQSDTPEIRKYKKRFNSEILCAALWGVNLLVGTESGLMLLDRSGQGKVYPLINRRRFQQMDVLEGLNVLVTISGKKDKLRVYYLSWLRNKILHNDPEVEKKQGWTTVGDLEGCVHYKVVKYERIKFLVIALKSSVEVYAWAPKPYHKFMAFKSFGELVHKPLLVDLTVEEGQRLKVIYGSCAGFHAVDVDSGSVYDIYLPTHIQCSIKPHAIIILPNTDGMELLVCYEDEGVYVNTYGRITKDVVLQWGEMPTSVAYIRSNQTMGWGEKAIEIRSVETGHLDGVFMHKRAQRLKFLCERNDKVFFASVRSGGSSQVYFMTLGRTSLLSW
- Difference (log2), untreated vs GFP (GFP-14-3-3β): 0.6698 log2

- Difference (log2), PP1 vs untreated [1]: 0.4378 log2
B5: ATP5J2 (protein, UniProt P56134 2-94, looked up)
ATP synthase F(0) complex …: ASVGECPAPVPVKDKKLLEVKLGELPSWILMRDFSPSGIFGAFQRGYYRYYNKYINVKKGSISGITMVLACYVLFSYSFSYKHLKHERLRKYH
- Difference (log2), untreated vs GFP (GFP-14-3-3β): -0.05352 log2

- Difference (log2), PP1 vs untreated [1]: 0.4442 log2
B6: SSBP1 (protein, UniProt Q04837 17-148, looked up)
Single-stranded DNA-binding …: ESETTTSLVLERSLNRVHLLGRVGQDPVLRQVEGKNPVTIFSLATNEMWRSGDSEVYQLGDVSQKTTWHRISVFRPGLRDVAYQYVKKGSRIYLEGKIDYGEYMDKNNVRRQATTIIADNIIFLSDQTKEKE
- Difference (log2), untreated vs GFP (GFP-14-3-3β): -1.1951 log2
